Experimental data reported in patent US20220251241A1 (NGM BIOPHARMACEUTICALS, published 2022).

Legend:
[1] = biological target: endogenous HTRA1 protein in the serum of the animals dosed with hz24F7.v2 (PK serum samples) (cynomolgus monkey); test: cell-based or functional assay
[2] = biological target: T1, human HTRA1 full length protein (HTRA1-FL) (human, UniProt Q92743 23-480); test: SPR (Biacore), 25° C.
T1 construct: also called human HTRA1-FL

[3] = biological target: T2, HTRA1-catalytic domain (HTRA1-CAT; amino acids 156-364 of SEQ ID NO:1) (human, UniProt Q92743 156-364); test: SPR (Biacore), 25° C.
T2 construct: Wild-type catalytic domain construct; also called HTRA1 catalytic domain protein

[4] = biological target: T1, human HTRA1 full length protein …; test: SPR (Biacore), 37° C.
Protocol: (§1) The binding affinities of anti-HTRA1 antibodies to human HTRA1 were measured using a Biacore system (GE Healthcare Life Sciences). Briefly, anti-Fc antibody (Sigma-Aldrich) was immobilized on all four flow cells of a CMS chip using amine coupling reagents (GE Healthcare LifeSciences). Antibodies were captured on flow cells 2, 3, and 4 using flow cell 1 as a reference. Concentrations ranging from 3.3-10 nM of human delta N-HTRA1 were injected at a flow rate of 50 μL/min at 37° C. Kinetic data were collected over time and fit using the simultaneous global fit equation to yield affinity constants (KD values) for each antibody.
(§2) The binding affinity of hz24F7.v2 to a HTRA1 full length protein (HTRA1-FL) or a HTRA1-CAT was determined using a Biacore system as described herein and compared with the binding affinity of the parental 24F7 antibody (see Table 9).

[5] = biological target: T2, HTRA1-catalytic domain (HTRA1-CAT; …); test: SPR (Biacore), 37° C.
Protocol: as §1, §2

[6] = biological target: T3, HTRA1 (construct not given) (Homo sapiens (Human), UniProt Q92743 23-480, limits assumed); test: cell-based or functional assay
[7] = biological target: T3, HTRA1 (construct not stated in the …); test: cell-based or functional assay; remark: listed apart in the source
[8] = biological target: T3, HTRA1 (construct not stated in the …); test: cell-based or functional assay; remark: listed apart in the source
[9] = biological target: T3, HTRA1 (construct not stated in the …); test: cell-based or functional assay; remark: listed apart in the source
[10] = biological target: T3, HTRA1 (construct not stated in the …); test: SPR (Biacore); affinity at baseline
[11] = biological target: T2, HTRA1-catalytic domain (HTRA1-CAT; …); test: SPR (Biacore), 37° C.; * = Limit of Detection
Protocol: as §1, §2

[12] = biological target: T2, HTRA1-catalytic domain (HTRA1-CAT; …); test: SPR (Biacore), 25° C.; kon at the limit of detection
[13] = biological target: T2, HTRA1-catalytic domain (HTRA1-CAT; …); test: SPR (Biacore), 37° C.; kon at the limit of detection
Protocol: as §1, §2

[14] = biological target: T3, HTRA1 (construct not stated in the …); test: protease inhibition assay, casein substrate; apparent Ki (Ki^app)
Source text: (§3) Two enzymatic assays were used to characterize HTRA1 protease activity and evaluate inhibitory activity of anti-HTRA1 antibodies. EnzChek® Protease Assay Kit (ThermoFisher Scientific) was used following the manufacturer's instructions. This kit contains casein protein that is heavily labeled with the pH-insensitive green-fluorescent BOPIPY® FL dye that results in almost total quenching of the conjugate's fluorescence. Protease-catalyzed hydrolysis of labeled casein releases highly fluorescent BODIPY® FL dye-labeled peptides. The concomitant increase in fluorescence is proportional to protease activity.
To confirm that the humanized version of antibody 24F7 retained the ability to inhibit H IRA1 protease activity, hz24F7.v2 was assessed in casein and H2-Opt assays as described herein.

[15] = biological target: T3, HTRA1 (construct not stated in the …); test: protease inhibition assay, H2-Opt peptide substrate; apparent Ki (Ki^app)
[16] = biological target: T3, HTRA1 (construct not stated in the …); test: SPR (Biacore), 25° C.; antibody captured; sample stored 0 weeks at pH 7.4, 40° C.
Protocol: as §1, with “Concentrations ranging from 3.3-10 nM of human delta N-HTRA1 were injected at a flow rate of 50 μL/min at 37° C.” left out, “antibody. […]” for “antibody.”

[17] = biological target: T3, HTRA1 (construct not stated in the …); test: SPR (Biacore), 25° C.; antibody captured; sample stored 2 weeks at pH 7.4, 40° C.
Protocol: as §1, with “Concentrations ranging from 3.3-10 nM of human delta N-HTRA1 were injected at a flow rate of 50 μL/min at 37° C.” left out, “antibody. […]” for “antibody.”

[18] = biological target: T3, HTRA1 (construct not stated in the …); test: SPR (Biacore), 25° C.; antibody captured; sample stored 4 weeks at pH 7.4, 40° C.
Protocol: as §1, with “Concentrations ranging from 3.3-10 nM of human delta N-HTRA1 were injected at a flow rate of 50 μL/min at 37° C.” left out, “antibody. […]” for “antibody.”

[19] = biological target: T3, HTRA1 (construct not stated in the …); test: SPR (Biacore), 25° C.; antibody captured; sample stored 8 weeks at pH 7.4, 40° C.
Protocol: as §1, with “Concentrations ranging from 3.3-10 nM of human delta N-HTRA1 were injected at a flow rate of 50 μL/min at 37° C.” left out, “antibody. […]” for “antibody.”

[20] = biological target: T2, HTRA1-catalytic domain (HTRA1-CAT; …); test: SPR (Biacore), 25° C.; * = Limit of Detection; 25° C.; HTRA1-CAT; kon at limit of detection
HTRA1-CAT R190A mutant = HTRA1-CAT R190A mutant (human, UniProt Q92743 156-364); test: ELISA
Protocol: (§4) A series of mutated HTRA1-catalytic domain (HTRA1-CAT; amino acids 156-364 of SEQ ID NO:1) proteins containing single amino acid substitutions were generated by standard methods (e.g., site directed mutagenesis). Antibody 24F7 was tested by ELISA for binding to these mutant HTRA1-CAT proteins as well as a wild-type HTRA1 peptide consisting of amino acids […] (SEQ ID NO:92; R190—V201 of SEQ ID NO:1).

HTRA1-CAT P193A mutant = HTRA1-CAT P193A mutant (human, UniProt Q92743 156-364); test: ELISA
Protocol: as §4

HTRA1-CAT F194A mutant = HTRA1-CAT F194A mutant (human, UniProt Q92743 156-364); test: ELISA
Protocol: as §4

HTRA1-CAT R197A mutant = HTRA1-CAT R197A mutant (human, UniProt Q92743 156-364); test: ELISA
Protocol: as §4

[21] = biological target: T4, wild-type HTRA1 peptide RKLPFSKREVPV (R190-V201 of SEQ ID NO:1) (human); test: ELISA
T4 construct: also called Wild type peptide (R190 - V201)
T4 peptide: RKLPFSKREVPV
Protocol: as §4

[22] = biological target: T3, HTRA1 (construct not stated in the …); test: cell-based or functional assay; remark: listed apart in the source
[23] = biological target: endogenously expressed HTRA1 secreted by the human melanoma cell line C32 (human, UniProt Q92743 23-480); test: cell-based or functional assay
[24] = biological target: T3, HTRA1 (construct not stated in the …); test: SPR (Biacore), 25° C.
Protocol: as §1, with “Concentrations ranging from 3.3-10 nM of human delta N-HTRA1 were injected at a flow rate of 50 μL/min at 37° C.” left out
(§5) SPR assays were set up using a Biacore system as described herein.

[25] = biological target: T3, HTRA1 (construct not stated in the …); test: SPR (Biacore), 37° C.
Protocol: as §1, §5

[26] = biological target: T3, HTRA1 (construct not stated in the …); test: cell-based or functional assay; remark: listed apart in the source
[27] = biological target: T3, HTRA1 (construct not stated in the …); test: cell-based or functional assay; remark: listed apart in the source
[28] = biological target: T3, HTRA1 (construct not stated in the …); test: protease inhibition assay, casein substrate (EnzChek); apparent Ki (Ki^app)
Source text: as §3
Antibodies identified in HTRA1 binding assays were tested for their ability to inhibit HTRA1 protease activity. The range of antibody concentrations was tested to establish a dose response curve and determine IC₅₀ values.

[29] = biological target: T3, HTRA1 (construct not stated in the …); test: protease inhibition assay, H2-Opt peptide substrate (FRET); apparent Ki (Ki^app)
[30] = biological target: human delta N-HTRA1 (amino acids 156-480 of SEQ ID NO:1) (human, UniProt Q92743 156-480); test: SPR (Biacore); antibody captured by anti-Fc, human delta N-HTRA1 injected; temperature of this table not stated
Protocol: as §1

T1 sequence (Q92743 23-480): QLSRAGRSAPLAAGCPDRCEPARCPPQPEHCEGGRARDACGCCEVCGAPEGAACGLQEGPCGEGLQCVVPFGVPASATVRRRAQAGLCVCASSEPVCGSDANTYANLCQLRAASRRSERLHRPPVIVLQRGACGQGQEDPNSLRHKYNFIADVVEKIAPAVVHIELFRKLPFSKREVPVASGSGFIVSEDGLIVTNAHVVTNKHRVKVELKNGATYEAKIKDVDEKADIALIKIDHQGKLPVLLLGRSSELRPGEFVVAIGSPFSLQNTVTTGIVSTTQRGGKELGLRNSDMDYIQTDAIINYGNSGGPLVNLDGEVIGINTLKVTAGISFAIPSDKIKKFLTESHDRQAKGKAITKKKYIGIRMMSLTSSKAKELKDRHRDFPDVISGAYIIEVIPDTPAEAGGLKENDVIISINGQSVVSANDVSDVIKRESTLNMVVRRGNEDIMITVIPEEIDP
T3 sequence (Q92743 23-480 limits assumed): as the sequence (Q92743 23-480) above
T2 sequence (Q92743 156-364): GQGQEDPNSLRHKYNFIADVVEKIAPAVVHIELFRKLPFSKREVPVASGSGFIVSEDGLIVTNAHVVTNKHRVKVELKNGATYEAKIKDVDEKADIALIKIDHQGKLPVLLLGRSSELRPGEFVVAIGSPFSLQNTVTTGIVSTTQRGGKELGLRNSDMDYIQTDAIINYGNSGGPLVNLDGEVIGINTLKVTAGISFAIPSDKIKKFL
human delta N-HTRA1 (amino acids 156-480 of SEQ ID NO:1), sequence (Q92743 156-480, stated change not applied): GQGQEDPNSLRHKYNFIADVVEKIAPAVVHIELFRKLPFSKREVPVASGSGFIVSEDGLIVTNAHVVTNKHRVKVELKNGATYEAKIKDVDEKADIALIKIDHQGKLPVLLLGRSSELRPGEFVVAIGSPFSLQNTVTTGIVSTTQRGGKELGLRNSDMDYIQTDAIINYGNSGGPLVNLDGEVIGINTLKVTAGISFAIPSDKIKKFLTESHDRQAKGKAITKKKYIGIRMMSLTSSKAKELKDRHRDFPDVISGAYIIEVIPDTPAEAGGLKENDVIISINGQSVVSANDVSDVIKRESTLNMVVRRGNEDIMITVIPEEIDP
endogenously expressed HTRA1 secreted by the human melanoma cell line C32, sequence (Q92743 23-480): as the sequence (Q92743 23-480) above
HTRA1-CAT R197A mutant, sequence (Q92743 156-364 R197A): as the sequence (Q92743 156-364) above, with R42A counted along it
HTRA1-CAT F194A mutant, sequence (Q92743 156-364 F194A): as the sequence (Q92743 156-364) above, with F39A counted along it
HTRA1-CAT P193A mutant, sequence (Q92743 156-364 P193A): as the sequence (Q92743 156-364) above, with P38A counted along it
HTRA1-CAT R190A mutant, sequence (Q92743 156-364 R190A): as the sequence (Q92743 156-364) above, with R35A counted along it

B1: antibody hz24F7.v2 (antibody, human IgG1, kappa, N297G, V domains shown)
VH: QVQLVQSGAEVKKPGASVKVSCKASGYTFTDYEMHWVRQAPGQRLEWMGAIDPETGGTAYNQKFKGRVTITADKSASTAYMELSSLRSEDTAVYYCTREGYSYEGGGYYFDYWGQGTLVTVSS
VL: DIQMTQSPSSLSASVGDRVTITCSVSSSVSYMYWYQQKPGKAPKLLIYDTSNLASGVPSRFSGSGSGTDFTFTISSLQPEDIATYYCQQWSSYPTFGQGTKLEIKR
notes: also called humanized variant of 24F7
amount of HTRA1 protein in PK serum samples after IV dosing of hz24F7.v2 [1]: ~4 fold
amount of HTRA1 protein in PK serum samples after IVT dosing of hz24F7.v2 [1]: ~2 fold
Kd [2]: 58 pM
koff [2]: 4.2e-05 s⁻¹
kon [2]: 710000 M⁻¹ s⁻¹
koff [3]: 5.6e-05 s⁻¹
Kd [4]: 93 pM
koff [4]: 0.00014 s⁻¹
kon [4]: 1.5e+06 M⁻¹ s⁻¹
koff [5]: 0.00017 s⁻¹
IC50, Casein Assay [6]: 290 pM
IC50, H2-Opt Assay [6]: 120 pM
IC50 at baseline [7]: 66 pM
IC50, enzyme assay; hz24F7.v2 reference in the S91Y column [8]: 64.5 pM
IC50, enzyme assay; hz24F7.v2 reference in the S92T column [8]: 64.5 pM
IC50 (read off the curve), HTRA1 enzymatic assay, Hz24F7.v2 standard (dark squares) [9]: ~100 pM
Kd [10]: 17.6 pM
koff [10]: 0.000225 s⁻¹
kon [10]: 1.28e+07 M⁻¹ s⁻¹
kon [11]: 1.1e+07 M⁻¹ s⁻¹
Kd [12]: < 100 pM
Kd [13]: < 100 pM
Ki [14]: 86 pM
Ki [15]: 67 pM
Kd [16]: 213 pM
koff [16]: 0.000416 s⁻¹
kon [16]: 1.95e+06 M⁻¹ s⁻¹
Kd [17]: 178 pM
koff [17]: 0.000374 s⁻¹
kon [17]: 2.1e+06 M⁻¹ s⁻¹
Kd [18]: 144 pM
koff [18]: 0.000388 s⁻¹
kon [18]: 2.68e+06 M⁻¹ s⁻¹
Kd [19]: 167 pM
koff [19]: 0.000502 s⁻¹
kon [19]: 3.01e+06 M⁻¹ s⁻¹
kon [20]: ≥ 3.9e+06 M⁻¹ s⁻¹

B2: antibody 24F7 (antibody, V domains shown)
VH: QVQLQQSGAELVRPGASVKLSCKASGYTFTDYEMHWVKQTPVHGLEWIGAIDPETGGTAYNQKFKGKATLTADKSSSTAYMELRSLTSEDSAVYYCTREGYSYDGGGYYFDYWGQGTTLTVSS
VL: QIVLTQSPAIMSASPGEKVTMTCSVSSSVSYMYWYQQKPGSSPRLLIYDTSNLASGVPVRFSGSGSGTSYSLTISRMEAEDAATYYCQQWSSYPTFGGGTKLEIK
notes: Mouse hybridoma monoclonal antibody; also called parental 24F7 antibody
binding result (HTRA1-CAT R190A mutant): no binding
binding result (HTRA1-CAT P193A mutant): binds
binding result (HTRA1-CAT F194A mutant): binds
binding result (HTRA1-CAT R197A mutant): no binding
binding result [21]: no binding
IC50 of inhibition of HTRA1 protease activity, H2-Opt peptide as substrate [22]: 164 pM
IC50 of inhibition of HTRA1 protease activity, casein as substrate [22]: 145 pM
IC50 of inhibition of protease activity, EnzChek protease assay with C32 conditioned media [23]: 118 pM
Kd [24]: 30 pM
koff [24]: 5e-05 s⁻¹
kon [24]: 1.6e+06 M⁻¹ s⁻¹
Kd [25]: 21 pM
koff [25]: 8.2e-05 s⁻¹
kon [25]: 4e+06 M⁻¹ s⁻¹
Kd [4]: 47 pM
koff [4]: 8.6e-05 s⁻¹
kon [4]: 1.8e+06 M⁻¹ s⁻¹
IC50, Protease Assay-Casein substrate [26]: 150 pM
IC50, Protease Assay-H2-Opt peptide [26]: 120 pM
IC50, Casein Assay [6]: 350 pM
IC50, H2-Opt Assay [6]: 170 pM
IC50 (read off the curve), HTRA1 protease assay, casein substrate 0.05 ug/ml (inverted triangles) [27]: ~200 pM
IC50 (read off the curve), HTRA1 protease assay, casein substrate 0.1 ug/ml (triangles) [27]: ~200 pM
IC50 (read off the curve), HTRA1 protease assay, casein substrate 0.2 ug/ml (circles) [27]: ~200 pM
IC50 (read off the curve), HTRA1 protease assay, casein substrate 0.3 ug/ml (squares) [27]: ~200 pM
Ki [14]: 99 pM
Ki [15]: 76 pM
Ki [28]: 54 pM
Ki [29]: 118 pM
Kd [30]: 12 pM
koff [30]: 8.5e-05 s⁻¹
kon [30]: 7.4e+06 M⁻¹ s⁻¹
